T1: GST-Dvl2PDZ fusion protein (human, UniProt O14641 248-364)
T1 construct: range 248-364; Made with the pGEX E. coli expression system; also called GST-PDZ fusion protein; not shown: glutathione S-transferase (GST) encoded by plasmid pGEX
T1 sequence (looked up): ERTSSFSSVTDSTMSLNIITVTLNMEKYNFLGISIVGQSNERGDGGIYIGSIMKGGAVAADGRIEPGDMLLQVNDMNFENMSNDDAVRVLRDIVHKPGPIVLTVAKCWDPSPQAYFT


The binders below were run against T1, GST-Dvl2PDZ fusion protein (assay: phage display selection on GST-Dvl2PDZ).
Experimental: The libraries were cycled through rounds of binding selection with a GST-Dvl2PDZ fusion protein coated on 96-well Maxisorp immunoplates as the capture target. Phage were propagated in E. coli XL1-blue with M13-KO7 helper phage and 10 μM IPTG. After four rounds of binding selection, individual phage clones were analyzed in a high-throughput phage ELISA, and positive clones were subjected to DNA sequence analysis.
We used decapeptide libraries fused to the C-terminus or N-terminus of the phage coat protein. The library contained NNK degenerate codons that encoded all 20 natural amino acids. The possible occurrence of amber stop codons in the degenerate codon also provided for the display of shorter peptides for the C-terminal library. Each library was cycled through four rounds of binding selection with immobilized GST-Dvl2PDZ fusion protein as the capture target.
MMWIDGPLAS [SEQ ID NO 150]: binds.
GEMWVDGPCL [SEQ ID NO 151]: binds.
ERWIDYGYIL [SEQ ID NO 152]: binds.
ETWIDGPMYT [SEQ ID NO 153]: binds.
LTEIWIDGWP [SEQ ID NO 154]: binds.
PEVWIDGPESG [SEQ ID NO 156]: binds.
NEVWIDGPGQ [SEQ ID NO 157]: binds.
NEVWIDGPGI [SEQ ID NO 159]: binds.
VPTWIDGPCVD [SEQ ID NO 158]: binds.
AEQWIDGPHL [SEQ ID NO 160]: binds.
TTEVWVDWPM [SEQ ID NO 161]: binds.
GEMWVDGPCL [SEQ ID NO 162]: binds.
AEVWVDGPYI [SEQ ID NO 164]: binds.
QTIWKDYGII [SEQ ID NO 165]: binds.
TIWWDYGAI [SEQ ID NO 166]: binds.
SWWNKCYGWF [SEQ ID NO 5]: binds.
NKRYTVLGWF [SEQ ID NO 6]: binds.
IVRWTLLGIF [SEQ ID NO 7]: binds.
TSSWKWYGWL [SEQ ID NO 8]: binds.
PRIFKDYGMF [SEQ ID NO 9]: binds.
YWTRTFYGFF [SEQ ID NO 10]: binds.
NRWRLLGWF [SEQ ID NO 11]: binds.
TSWCKWYGWL [SEQ ID NO 12]: binds.
FWIYKYYGRF [SEQ ID NO 13]: binds.
DRIRFLGWF [SEQ ID NO 14]: binds.
AVRWLFLGWF [SEQ ID NO 15]: binds.
RSGHRFLGWF [SEQ ID NO 16]: binds.
SWKLLGFF [SEQ ID NO 17]: binds.
TSFLKGYGWL [SEQ ID NO 18]: binds.
SISYWFYGWL [SEQ ID NO 19]: binds.
LLFLKYYGWL [SEQ ID NO 20]: binds.
STRHYRTWWF [SEQ ID NO 21]: binds.
NVFRFFGWL [SEQ ID NO 22]: binds.
TWRVLGWF [SEQ ID NO 23]: binds.
NWKWYGFF [SEQ ID NO 24]: binds.
YTFFGWF [SEQ ID NO 25]: binds.
SHFKFFGWF [SEQ ID NO 26]: binds.
NRIPCLGGW [SEQ ID NO 27]: binds.
SPRFTFLGWF [SEQ ID NO 28]: binds.
RIVSFFYGWL [SEQ ID NO 29]: binds.
KFLGWF [SEQ ID NO 30]: binds.
YFFYGWF [SEQ ID NO 31]: binds.
TPLYNYFGGL [SEQ ID NO 32]: binds.
TVRWVFFGFF [SEQ ID NO 33]: binds.
RTRFTCFGWF [SEQ ID NO 34]: binds.
MTKWIWYGWL [SEQ ID NO 35]: binds.
RISWTFLGYF [SEQ ID NO 36]: binds.
RPFCTFLGWF [SEQ ID NO 37]: binds.
SWYFKFYGWL [SEQ ID NO 38]: binds.
ITRYTFFGFF [SEQ ID NO 39]: binds.
ELRWHDYGWIGGG [SEQ ID NO 40]: binds.
QAVYKNYGWIGGG [SEQ ID NO 41]: binds.
EWSHVYYGWLGGG [SEQ ID NO 42]: binds.
DIVLTNYGWIGGG [SEQ ID NO 43]: binds.
TVVWHDYGWIGGG [SEQ ID NO 44]: binds.
QTIWKDYGIIGGG [SEQ ID NO 45]: binds.
WVLVDYGVIGGG [SEQ ID NO 46]: binds.
LVVKDYGWIGGG [SEQ ID NO 47]: binds.
SEWKNYGYIGGG [SEQ ID NO 48]: binds.
GWTWKDYGMIGGG [SEQ ID NO 49]: binds.
TVVWHDYGWIGGG [SEQ ID NO 50]: binds.
EKIVKDYGWIGGG [SEQ ID NO 51]: binds.
QWVMTECGWIGGG [SEQ ID NO 52]: binds.
GTQWKDYGWLGGG [SEQ ID NO 53]: binds.
EMVVTNYGWIGGG [SEQ ID NO 54]: binds.
DMDFTGFGWLGGG [SEQ ID NO 55]: binds.
ELRWHDYGWIGGG [SEQ ID NO 56]: binds.
ELRWHDYGWIGGG [SEQ ID NO 57]: binds.
